According to patent US10918733B2, “Lipopeptide- and lipoprotein-conjugates and its use” (HELMHOLTZ-ZENTRUM FUER INFEKTIONSFORSCHUNG GMBH, priority 2009, dated 2021):

How the values were obtained:
[1] = test system: Ova-specific secretory IgA; experiment: Local Ova-specific secretory IgA in lavages after i.n. immunization (ELISA); format: in vivo, C57BL6 mice; conditions: day 38
Method: Experimental protocol: at day 38, mice were sacrificed and the final sampling was performed. Vaginal and lung lavages were obtained by flushing the organs with 1 ml of PBS supplemented with 50 mM EDTA, 0.1% BSA, and 10 mM PMSF. Lavages were then centrifuged to remove debris (10 min at 3000×g), and supernatant fluids were stored at −20° C. To determine the concentration of total IgA present in the lung and vaginal lavages, serial dilutions of the corresponding samples were incubated in microtiter plates that were previously coated with goat anti-mouse IgA (Sigma Chemie), as capture antibodies (100 μl/well). Serial dilutions of purified mouse IgA (Sigma Chemie) were used to generate a standard curve.
To investigate the capacity of BPPcysOva^mPEG to stimulate local immune responses given by the i.n. route, we analyzed the production of Ova-specific secretory IgA in lung, nasal and vaginal lavages from immunized animals.
FIG. 5: Humoral responses stimulated following vaccination using BPPcysOva^mPEG. […] At day 38 post primary immunisation, serum samples were collected and the IgG 1 and IgG2c titres of Ova-specific antibodies were determined by ELISA. […] At day 38 post primary immunisation broncho alveolar lavage (BAL), nasal lavages (NL) and Vaginal lavages (VL) were collected and the Ova-specific secretory IgA (sIgA) expression in samples of immunized mice were determined by ELISA.

[2] = test system: IFNgamma, IL-2, IL-4 and IL-17-secreting cells; experiment: ELISPOT of cytokine-secreting spleen cells in immunized mice; format: in vivo
Method: Experimental protocol: Spleens were removed and pooled for analysis of cellular immune responses. Cells were grown in RPMI 1640 supplemented with 10% fetal calf serum, 100 U/ml of penicillin, 50 μg/ml of streptomycin, 5×10^−5 M 2-mercaptoethanol and 1 mM L-glutamine (GIBCO BRL, Karlsruhe, Germany) and maintained at 37° C. in a humidified 5% CO2 atmosphere. Lymph node and spleen cell suspensions were adjusted to 5×10^6 cells/ml in complete medium, cells were seeded with 100 μl per well in a flat-bottomed 96-well microtiter plate (Nunc) and plates were incubated for 4 days in the presence of different concentrations of soluble Ova. Each concentration was tested in triplicates.
FIG. 7: Detection of IFNgamma, IL-2, IL-4 and IL-17-secreting cells in immunized mice. Spleen cells (1×10^6 and 5×10^5 cells/well) recovered from animals vaccinated by the (A) i.n. or (B) s.c. route were incubated in the presence of either the Ova protein (for IL2 and IL4) or a Ova peptide (TPHPARIGL) encompassing its immunodominant MHC class I-restricted epitope (for IFNgamma). Then, the numbers of IFNgamma, IL2, IL4 and IL-17-producing cells was determined by ELISPOT. Results are presented as spot forming units per 10^6 cells, which were subtracted from the values obtained from non-stimulated cells. The SEM of triplicates is indicated by vertical lines.

[3] = Tolerability during the immunization period; format: in vivo, C57BL6 mice; conditions: i.n. or s.c. immunization
Method: Experimental protocol 1: six-eight weeks-old female C57BL6 mice were purchased from Harlan Winkelmann GmbH (Borchen, Germany) and treated in accordance with local and European Community guidelines. Groups of 5 mice each were immunized on day 1, 14 and 28 with 30 μg of Ova (Sigma Chemie, Deisenhofen, Germany) or LPS-free Ova (EndoGrade Ovalbumin, Hyglos GmbH) alone, co-administered with 5 μg of BPPcysMPEG or with 5 to 10 μg of synthetic BPPcysOva^mPEG alone. For intranasal (i.n.) immunization, 10 μl were applied to each naris, whereas for the s.c. the compounds were resuspended in 50 μl of PBS per dose. Serum samples were collected at different time points (day 0, 13, 27 and 38) after immunization and stored at −20° C. prior to determination of Ova-specific antibodies. 96-well Nunc-Immuno MaxiSorp assay plates (Nunc, Roskilde, Denmark) were coated with 100 μl of Ova (Sigma Chemie, Deisenhofen, Germany) at 5 μg/ml in 0.05 M carbonate buffer (pH 8.2) per well. Serial two-fold dilutions of sera or lavages in PBS with 1% BSA and 0.05% Tween 20 were added (100 μl/well), and plates incubated for 2 h at 37° C. […] Endpoint titers were expressed as the reciprocal log2 of the last dilution, which gave an optical density at 405 nm of 0.1 units above the values of the negative controls after 15 to 30 min of incubation. […]

B1: Ova: model antigen ovalbumin (Sigma Chemie) (protein, UniProt P01012 2-386, looked up)
Ovalbumin: GSIGAASMEFCFDVFKELKVHHANENIFYCPIAIMSALAMVYLGAKDSTRTQINKVVRFDKLPGFGDSIEAQCGTSVNVHSSLRDILNQITKPNDVYSFSLASRLYAEERYPILPEYLQCVKELYRGGLEPINFQTAADQARELINSWVESQTNGIIRNVLQPSSVDSQTAMVLVNAIVFKGLWEKAFKDEDTQAMPFRVTEQESKPVQMMYQIGLFRVASMASEKMKILELPFASGTMSMLVLLPDEVSGLEQLESIINFEKLTEWTSSNVMEERKIKVYLPRMKMEEKYNLTSVLMAMGITDVFSSSANLSGISSAESLKISQAVHAAHAEINEAGREVVGSAEAGVDAASVSEEFRADHPFLFCIKHIATNAVLFFGRCVSP
Ova-specific IgA in lung lavages [1]: failed to stimulate the production of detectable levels | IFNγ producing cells after i.n. administration [2]: narrowly detectable | adverse effect during the immunization period [3]: no adverse effect
